Assay results: publication PMC11987610, “Pseudomonas aeruginosa PfpI is a methylglyoxalase” (The Journal of Biological Chemistry, 2025)
One block for each molecule: values may come before it.

Experiments:
YhbO = molecular target: T1, YhbO (Escherichia coli, UniProt P45470); test: 1D 1H NMR of end products; format: biochemical; settings: 1 mM MGO, 20 μg enzyme, 50 mM PBS with 5% DMSO-d6, overnight, 4 °C
T1 construct: full-length ORF with N-terminal His6 tag (pET-19m), E. coli Rosetta (DE3); tagged mass 20,858 Da
T1 sequence (P45470 1-172): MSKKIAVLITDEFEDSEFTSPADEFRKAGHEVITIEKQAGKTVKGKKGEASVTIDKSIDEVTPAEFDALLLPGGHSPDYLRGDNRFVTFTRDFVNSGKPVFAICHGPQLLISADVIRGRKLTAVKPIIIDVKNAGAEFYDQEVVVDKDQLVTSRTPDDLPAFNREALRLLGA

[1] = molecular target: Pseudomonas aeruginosa PfpI (PA0355), recombinant, N-terminal His6 tag (P. aeruginosa PAO1); test: AUC; sedimentation velocity; 25 mM Tris-HCl (pH 8.0), 100 mM NaCl; 0.5, 1.0 and 2.0 mg/ml PfpI; 20 C, 24 h
[2] = substrate: CC(=O)C=O; test: colorimetric lactate assay after heat quench, Michaelis-Menten fit; format: biochemical, Pseudomonas aeruginosa; settings: PBS, 37 °C, 0.2 μM enzyme, glutathione-independent

Molecule: CC(=O)C=O [methylglyoxal]
- 1D 1H NMR of end products (YhbO): both enzymes quantitatively convert MGO to lactate

- stoichiometry N [1]: 2
Molecule: Pseudomonas aeruginosa PfpI (PA0355), recombinant, N-terminal His6 tag (enzyme)

B1: PfpI (Pseudomonas aeruginosa PAO1) (protein)
chain: MTQSLHGKVVAALVTDGFEQVELTGPKKALEDAGATVRILSDKAGEVRGWNHHQPAEAFRVDGTFEDASLDDYDALLLPGGVINSDQIRSLAKAQELAIRAEQASKPVAVICHGAWLLISAGLVQGRTLTSWPSLKDDINNAGGHWVDQEVAVDGKLVSSRKPEDIPAFNRRFIEILAG
notes: full-length ORF (540 bp) with N-terminal His6 tag (pET-19m), E. coli Rosetta (DE3); tagged mass 21,246 Da
- Km [2]: 369 ± 139 µM
- kcat [2]: 1.72 ± 0.367 s⁻¹
